Data reported in patent US7879792 (REGENTS OF THE UNIVERSITY OF MICHIGAN, dated 2011).

What was measured:
[1] = target: T1, human α-thrombin (human, UniProt P00734 328-622); assay: cell-based or functional assay
[2] = target: T1, human α-thrombin; assay: inhibition of α-thrombin hydrolysis of Sar-Pro-Arg-paranitroanilide; Ki from Ki,app by the procedure of Bieth

Row | peptide concentration giving significant prolongation (p<0.05) of the APTT of normal human plasma [1] | peptide concentration giving significant prolongation (p<0.05) of the PT of normal human plasma [1] | peptide concentration giving significant prolongation (p<0.05) of the TCT of normal human plasma [1] | Ki [2] | Binder
1 | 25 µM | 6.25 µM | 0.78 µM | 6.4 µM | RXPAF (HELM PEPTIDE1{[dR].[O=C([C@@H]1C[C@@H]2CCCC[C@@H]2N1[*:1])[*:2]].P.[dA].[O=C([C@H](Cc1ccc(I)cc1)N[*:1])[*:2]].[am]}$$$$V2.0; N-terminus assumed; SMILES C[C@@H](NC(=O)[C@@H]1CCCN1C(=O)[C@@H]1C[C@@H]2CCCC[C@@H]2N1C(=O)[C@H](N)CCCNC(=N)N)C(=O)N[C@@H](Cc1ccc(I)cc1)C(N)=O) [rOicPaF(p-I) (D-Arg-Oic-Pro-D-Ala-Phe(p-I))]
2 | 12.5 µM | 6.25 µM | 0.78 µM | 7.3 µM | RXPAF (HELM PEPTIDE1{[dR].[O=C([C@@H]1C[C@@H]2CCCC[C@@H]2N1[*:1])[*:2]].P.[dA].[O=C([C@H](Cc1ccc(Br)cc1)N[*:1])[*:2]].[am]}$$$$V2.0; N-terminus assumed; SMILES C[C@@H](NC(=O)[C@@H]1CCCN1C(=O)[C@@H]1C[C@@H]2CCCC[C@@H]2N1C(=O)[C@H](N)CCCNC(=N)N)C(=O)N[C@@H](Cc1ccc(Br)cc1)C(N)=O) [rOicPaF(p-Br) (D-Arg-Oic-Pro-D-Ala-Phe(p-Br))]
3 | 1.56 µM | 1.56 µM | 0.78 µM | 6.6 µM | RXPAF (HELM PEPTIDE1{[dR].[O=C([C@@H]1C[C@@H]2CCCC[C@@H]2N1[*:1])[*:2]].P.[dA].[Cc1ccc(C[C@H](N[*:1])C(=O)[*:2])cc1].[am]}$$$$V2.0; SMILES Cc1ccc(C[C@H](NC(=O)[C@@H](C)NC(=O)[C@@H]2CCCN2C(=O)[C@@H]2C[C@@H]3CCCC[C@@H]3N2C(=O)[C@H](N)CCCNC(=N)N)C(N)=O)cc1, also called H-r-Oic-P-a-F(p-Me)-NH2) [rOicPaF(p-Me) (D-Arg-Oic-Pro-D-Ala-Phe(p-Me))]
4 | 3.13 µM | 1.56 µM | 0.39 µM | 6.7 µM | RXPSF (HELM PEPTIDE1{[dR].[O=C([C@@H]1C[C@@H]2CCCC[C@@H]2N1[*:1])[*:2]].P.[dS].[Cc1ccc(C[C@H](N[*:1])C(=O)[*:2])cc1].[am]}$$$$V2.0; N-terminus assumed; SMILES Cc1ccc(C[C@H](NC(=O)[C@@H](CO)NC(=O)[C@@H]2CCCN2C(=O)[C@@H]2C[C@@H]3CCCC[C@@H]3N2C(=O)[C@H](N)CCCNC(=N)N)C(N)=O)cc1) [rOicPsF(p-Me) (D-Arg-Oic-Pro-D-Ser-Phe(p-Me))]
